Measured values: patent US20230056252A1 (Gilead, published 2023)

B1: huSP34.10.1 Fab-HF (Fab, V domains shown)
VH: EVQLVESGGGLVQPGGSLRLSCAASGFTFSDYAMNWVRQAPGKGLEWVGRTRSKYNSYATYYAASVKGRFTISRDDSKNSLYLQMNSLKTEDTAVYYCVRHGNFGHSYVSWFAVWGQGTLVTVSS
VL: QAVVTQEPSLTVSPGGTVTLTCRSSTGAVTTSNYANWVQQKPGQAPRGLIGGTNKRAPWTPARFSGSLIGDKAALTLSGAQPEDEAEYYCALWYSNLWVFGGGTKLTVL
B2: huSP34.10.6 Fab-HF (Fab, V domains shown)
VH: EVQLVESGGGLVQPGGSLRLSCAASGFTFSDYAMNWVRQAPGKGLEWVGRTRSKYNSYATYYAASVKGRFTISRDDSKNSLYLQMNSLKTEDTAVYYCVRHGNFGHSYVSWFAVWGQGTLVTVSS
VL: QAVVTQPPSLTVSPGGTVTLTCGSSTGAVTTGHYANWVQQKPGQAPRGLIGGTSNRAPGVPARFSGSLSGGKAALTISGAQPEDEAEYYCALWYSARWVFGGGTKLTVL
B3: huSP34.9.6 Fab-HF (Fab, V domains shown)
VH: EVQLVESGGGLVQPGGSLRLSCAASGFTFSDYAMNWVRQAPGKGLEWVGRTRSKYNSYATYYAASVKGRFTISRDDSKNSLYLQMNSLKTEDTAVYYCVRHGNFGNSYVSWFAVWGQGTLVTVSS
VL: QAVVTQPPSLTVSPGGTVTLTCGSSTGAVTTGHYANWVQQKPGQAPRGLIGGTSNRAPGVPARFSGSLSGGKAALTISGAQPEDEAEYYCALWYSARWVFGGGTKLTVL
B4: huSP34.7.6 Fab-HF (Fab, V domains shown)
VH: EVQLVESGGGLVQPGGSLRLSCAASGFTFSDYAMNWVRQAPGKGLEWVGRTRSKYNNYATYYAASVKGRFTISRDDSKNSLYLQMNSLKTEDTAVYYCVRHGNFGNSYVSWFAVWGQGTLVTVSS
VL: QAVVTQPPSLTVSPGGTVTLTCGSSTGAVTTGHYANWVQQKPGQAPRGLIGGTSNRAPGVPARFSGSLSGGKAALTISGAQPEDEAEYYCALWYSARWVFGGGTKLTVL
B5: huSP34.6.6 Fab-HF (Fab, V domains shown)
VH: EVQLVESGGGLVQPGGSLRLSCAASGFTFSTYAMNWVRQAPGKGLEWVGRIRSKYNNYATYYADSVKGRFTISRDNSKNTLYLQMNSLRAEDTAMYYCVRHGNFGNSYVSWFAVWGQGTLVTVSS
VL: QAVVTQPPSLTVSPGGTVTLTCGSSTGAVTTGHYANWVQQKPGQAPRGLIGGTSNRAPGVPARFSGSLSGGKAALTISGAQPEDEAEYYCALWYSARWVFGGGTKLTVL
B6: huSP34.10.5 Fab-HF (Fab, V domains shown)
VH: EVQLVESGGGLVQPGGSLRLSCAASGFTFSDYAMNWVRQAPGKGLEWVGRTRSKYNSYATYYAASVKGRFTISRDDSKNSLYLQMNSLKTEDTAVYYCVRHGNFGHSYVSWFAVWGQGTLVTVSS
VL: QAVVTQEPSLTVSPGGTVTLTCGSSTGAVTTGHYANWVQQKPGQAPRGLIGGTSNRAPWTPARFSGSLLGGKAALTLSGAQPEDEAEYYCALWYSARWVFGGGTKLTVL
B7: huSP34.10.2 Fab-HF (Fab, V domains shown)
VH: EVQLVESGGGLVQPGGSLRLSCAASGFTFSDYAMNWVRQAPGKGLEWVGRTRSKYNSYATYYAASVKGRFTISRDDSKNSLYLQMNSLKTEDTAVYYCVRHGNFGHSYVSWFAVWGQGTLVTVSS
VL: QAVVTQEPSLTVSPGGTVTLTCGSSTGAVTTSNYANWVQQKPGQAPRGLIGGTSNRAPWTPARFSGSLLGGKAALTLSGAQPEDEAEYYCALWYSNLWVFGGGTKLTVL
B8: huSP34.10.4 Fab-HF (Fab, V domains shown)
VH: EVQLVESGGGLVQPGGSLRLSCAASGFTFSDYAMNWVRQAPGKGLEWVGRTRSKYNSYATYYAASVKGRFTISRDDSKNSLYLQMNSLKTEDTAVYYCVRHGNFGHSYVSWFAVWGQGTLVTVSS
VL: QAVVTQEPSLTVSPGGTVTLTCGSSTGAVTTSHYANWVQQKPGQAPRGLIGGTSKRAPWTPARFSGSLLGGKAALTLSGAQPEDEAEYYCALWYSALWVFGGGTKLTVL
B9: hPGT121.66 AAS + W/huSP34.40.13 scFv AAS + SAV + R (bispecific antibody, human IgG1, lambda, L234A L235A)
chain: EVQLVESGGGLVQPGGSLRLSCAASGFTFNTYAMNWVRQAPGKGLEWVGRIRSKYNNYAAYYADSVKSRFTISRDDSKNSLYLQMNSLRTEDTAVYYCVRHGNFGHSYVSWFAYWGQGTLVTVSSGGGGSGGGGSGGGGSGGGGSQAVVTQEPSLTVSPGGTVTLTCGSSTGAVTTGHYANWVQQKPGQAPRGLIGGTSNRAPGVPARFSGSLLGGKAALTISGAQPEDEAEYYCALWYSNRWVFGGGTKLTVLEPKSSDKTHTCPPCPAPEAAGGPSVFLFPPKPKDTLMISRTPEVTCVVVDVSHEDPEVKFNWYVDGVEVHNAKTKPREEQYNSTYRVVSVLTVLHQDWLNGKEYKCKVSNKALPASIEKTISKAKGQPREPQVYTLPPSREEMTKNQVSLSCAVKGFYPSDIAVEWESNGQPENNYKTTPPVLDSDGSFFLVSKLTVDKSRWQQGNVFSCSVMHEALHNRYTQKSLSLSPGK
heavy: QMQLQESGPGLVKPSETLSLTCSVSGASISDSYWSWIRRSPGKGLEWIGYVHKSGDTNYNPSLKSRVHLSLDTSKNQVSLSLTGVTAADSGKYYCARTLHGRRIYGIVAFNEWFTYFYMDVWGTGTQVTVSSASTKGPSVFPLAPSSKSTSGGTAALGCLVKDYFPEPVTVSWNSGALTSGVHTFPAVLQSSGLYSLSSVVTVPSSSLGTQTYICNVNHKPSNTKVDKKVEPKSCDKTHTCPPCPAPEAAGGPSVFLFPPKPKDTLMISRTPEVTCVVVDVSHEDPEVKFNWYVDGVEVHNAKTKPREEQYNSTYRVVSVLTVLHQDWLNGKEYKCKVSNKALPASIEKTISKAKGQPREPQVYTLPPSREEMTKNQVSLWCLVKGFYPSDIAVEWESNGQPENNYKTTPPVLDSDGSFFLYSKLTVDKSRWQQGNVFSCSVMHEALHNHYTQKSLSLSPGK
light: not shown
notes: also called 276; bispecific 276
B10: hPGT121.66 AAS W/huSP34.39.13 scFv AAS + SAV + R (bispecific antibody, human IgG1, lambda, L234A L235A)
chain: EVQLVESGGGLVQPGGSLRLSCAASGFTFNTYAMNWVRQAPGKGLEWVGRIRSKYNNYATYYADSVKSRFTISRDDSKNSLYLEMNSLRTEDTAVYYCVRHGNFGHSYVSWFAYWGQGTLVTVSSGGGGSGGGGSGGGGSGGGGSQAVVTQEPSLTVSPGGTVTLTCGSSTGAVTTGHYANWVQQKPGQAPRGLIGGTSNRAPGVPARFSGSLLGGKAALTISGAQPEDEAEYYCALWYSNRWVFGGGTKLTVLEPKSSDKTHTCPPCPAPEAAGGPSVFLFPPKPKDTLMISRTPEVTCVVVDVSHEDPEVKFNWYVDGVEVHNAKTKPREEQYNSTYRVVSVLTVLHQDWLNGKEYKCKVSNKALPASIEKTISKAKGQPREPQVYTLPPSREEMTKNQVSLSCAVKGFYPSDIAVEWESNGQPENNYKTTPPVLDSDGSFFLVSKLTVDKSRWQQGNVFSCSVMHEALHNRYTQKSLSLSPGK
heavy: QMQLQESGPGLVKPSETLSLTCSVSGASISDSYWSWIRRSPGKGLEWIGYVHKSGDTNYNPSLKSRVHLSLDTSKNQVSLSLTGVTAADSGKYYCARTLHGRRIYGIVAFNEWFTYFYMDVWGTGTQVTVSSASTKGPSVFPLAPSSKSTSGGTAALGCLVKDYFPEPVTVSWNSGALTSGVHTFPAVLQSSGLYSLSSVVTVPSSSLGTQTYICNVNHKPSNTKVDKKVEPKSCDKTHTCPPCPAPEAAGGPSVFLFPPKPKDTLMISRTPEVTCVVVDVSHEDPEVKFNWYVDGVEVHNAKTKPREEQYNSTYRVVSVLTVLHQDWLNGKEYKCKVSNKALPASIEKTISKAKGQPREPQVYTLPPSREEMTKNQVSLWCLVKGFYPSDIAVEWESNGQPENNYKTTPPVLDSDGSFFLYSKLTVDKSRWQQGNVFSCSVMHEALHNHYTQKSLSLSPGK
light: not shown
B11: hPGT121.66 AAS + W/huSP34.41.13 scFv AAS + SAV + R (bispecific antibody, human IgG1, lambda, L234A L235A)
chain: EVQLVESGGGLVQPGGSLSLSCAASGFTFNTYAMNWVRQAPGKGLEWVGRIRSKYNNYATYYADSVKSRFTISRDDSKNSLYLQMNSLRTEDTAVYYCVRHGNFGHSYVSWFAYWGQGTLVTVSSGGGGSGGGGSGGGGSGGGGSQAVVTQEPSLTVSPGGTVTLTCGSSTGAVTTGHYANWVQQKPGQAPRGLIGGTSNRAPGVPARFSGSLLGGKAALTISGAQPEDEAEYYCALWYSNRWVFGGGTKLTVLEPKSSDKTHTCPPCPAPEAAGGPSVFLFPPKPKDTLMISRTPEVTCVVVDVSHEDPEVKFNWYVDGVEVHNAKTKPREEQYNSTYRVVSVLTVLHQDWLNGKEYKCKVSNKALPASIEKTISKAKGQPREPQVYTLPPSREEMTKNQVSLSCAVKGFYPSDIAVEWESNGQPENNYKTTPPVLDSDGSFFLVSKLTVDKSRWQQGNVFSCSVMHEALHNRYTQKSLSLSPGK
heavy: QMQLQESGPGLVKPSETLSLTCSVSGASISDSYWSWIRRSPGKGLEWIGYVHKSGDTNYNPSLKSRVHLSLDTSKNQVSLSLTGVTAADSGKYYCARTLHGRRIYGIVAFNEWFTYFYMDVWGTGTQVTVSSASTKGPSVFPLAPSSKSTSGGTAALGCLVKDYFPEPVTVSWNSGALTSGVHTFPAVLQSSGLYSLSSVVTVPSSSLGTQTYICNVNHKPSNTKVDKKVEPKSCDKTHTCPPCPAPEAAGGPSVFLFPPKPKDTLMISRTPEVTCVVVDVSHEDPEVKFNWYVDGVEVHNAKTKPREEQYNSTYRVVSVLTVLHQDWLNGKEYKCKVSNKALPASIEKTISKAKGQPREPQVYTLPPSREEMTKNQVSLWCLVKGFYPSDIAVEWESNGQPENNYKTTPPVLDSDGSFFLYSKLTVDKSRWQQGNVFSCSVMHEALHNHYTQKSLSLSPGK
light: not shown

Experiments:
[1] = target: T1, CD3 expressed on cell-surface of primary human T cells (human, UniProt P07766 23-207; P04234 22-171); assay: flow cytometry competition vs murine SP34-AF488 on human T cells, n = 1
T1 construct: also called cell-surface CD3; human CD3

[2] = target: T2, biotinylated Human CD3E and CD3D (Acro Biosystems Cat CDD-H82W1) (human, UniProt P07766 23-126; P04234 22-105); assay: SPR (Biacore 4000), CD3 captured on streptavidin chip;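 also: bispecific antibodies or Fabs injected at several concentrations over CD3 surfaces of varying density, sensorgrams fitted with a simple kinetic model to obtain association, dissociation and equilibrium constants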
T2 construct: also called biotinylated CD3

Binder	IC50 [1] [µg/mL]	Kd [2] [nM]	koff [2] [s⁻¹]	kon [2] [M⁻¹ s⁻¹]
B1	> 20	–	–	–
B2	> 20	–	–	–
B3	> 20	–	–	–
B4	> 20	–	–	–
B5	> 20	–	–	–
B6	> 20	–	–	–
B7	> 20	–	–	–
B8	> 20	–	–	–
B9	–	1.8	0.0063	3.6e+06
B10	–	2.6	0.009	3.4e+06
B11	–	2.8	0.0085	3e+06
